Test results from patent US20210122826A1 (MIT, published 2021).
Residue numbers refer to the chain shown, from its start.

T1: Human Clec12B (human, UniProt Q2HXU8 1-276)
T1 construct: also called hClec12B
T1 sequence: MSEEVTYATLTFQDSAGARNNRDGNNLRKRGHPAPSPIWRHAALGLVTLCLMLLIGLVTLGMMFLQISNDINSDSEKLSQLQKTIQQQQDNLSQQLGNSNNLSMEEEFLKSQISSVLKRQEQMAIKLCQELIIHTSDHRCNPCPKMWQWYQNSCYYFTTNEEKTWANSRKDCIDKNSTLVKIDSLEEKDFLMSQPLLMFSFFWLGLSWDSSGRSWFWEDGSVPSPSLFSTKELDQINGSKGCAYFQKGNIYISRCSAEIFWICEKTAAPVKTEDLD

T2: Human KLRG1 (human, UniProt Q96E93 1-195)
T2 construct: also called hKLRG1
T2 sequence: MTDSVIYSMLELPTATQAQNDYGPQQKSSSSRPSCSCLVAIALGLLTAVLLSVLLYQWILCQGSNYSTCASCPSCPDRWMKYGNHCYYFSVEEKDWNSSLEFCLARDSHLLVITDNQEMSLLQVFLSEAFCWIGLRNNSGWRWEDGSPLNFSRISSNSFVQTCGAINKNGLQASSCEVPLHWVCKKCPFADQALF

T3: Human CD209 (human, UniProt Q9NNX6 1-404)
T3 construct: also called hCD209
T3 sequence: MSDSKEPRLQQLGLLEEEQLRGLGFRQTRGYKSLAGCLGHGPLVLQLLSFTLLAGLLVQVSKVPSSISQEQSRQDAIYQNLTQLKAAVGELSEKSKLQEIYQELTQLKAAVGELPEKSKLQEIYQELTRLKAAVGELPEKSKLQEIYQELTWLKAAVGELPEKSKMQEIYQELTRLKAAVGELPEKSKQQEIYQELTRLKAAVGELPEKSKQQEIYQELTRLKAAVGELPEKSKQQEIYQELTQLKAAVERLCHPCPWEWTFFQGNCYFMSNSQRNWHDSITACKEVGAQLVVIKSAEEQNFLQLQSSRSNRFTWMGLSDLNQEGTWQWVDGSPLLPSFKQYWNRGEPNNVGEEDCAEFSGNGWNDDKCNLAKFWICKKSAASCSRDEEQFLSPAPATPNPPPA

T4: cynomolgus CD161 (cynomolgus)
T4 construct: UniProt A0A2K5WYI1; also called cynoCD161
T4 chain: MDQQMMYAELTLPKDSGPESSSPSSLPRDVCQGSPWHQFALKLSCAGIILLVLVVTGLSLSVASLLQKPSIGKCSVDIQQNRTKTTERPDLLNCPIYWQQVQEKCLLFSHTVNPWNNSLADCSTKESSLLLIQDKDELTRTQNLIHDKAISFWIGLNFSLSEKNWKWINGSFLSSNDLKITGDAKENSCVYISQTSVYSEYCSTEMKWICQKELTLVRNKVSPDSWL

T5: Human Clec5A (human, UniProt Q9NY25 1-188)
T5 construct: also called hClec5A
T5 sequence: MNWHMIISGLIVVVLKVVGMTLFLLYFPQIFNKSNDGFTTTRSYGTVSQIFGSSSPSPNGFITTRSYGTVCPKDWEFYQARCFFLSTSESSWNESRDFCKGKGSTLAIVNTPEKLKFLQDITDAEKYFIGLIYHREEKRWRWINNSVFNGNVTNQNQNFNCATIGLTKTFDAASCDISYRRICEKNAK

T6: Human KLRF1 (human, UniProt Q9NZS2 1-231)
T6 construct: also called hKLRF1
T6 sequence: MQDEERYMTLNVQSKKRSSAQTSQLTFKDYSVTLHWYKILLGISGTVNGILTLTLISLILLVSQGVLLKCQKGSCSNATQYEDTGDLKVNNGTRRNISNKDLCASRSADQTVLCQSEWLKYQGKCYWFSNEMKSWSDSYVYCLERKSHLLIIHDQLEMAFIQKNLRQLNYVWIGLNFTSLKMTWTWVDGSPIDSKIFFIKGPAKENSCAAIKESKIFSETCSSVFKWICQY

B1: anti-CD161 KW17 (antibody, V domains shown)
VH: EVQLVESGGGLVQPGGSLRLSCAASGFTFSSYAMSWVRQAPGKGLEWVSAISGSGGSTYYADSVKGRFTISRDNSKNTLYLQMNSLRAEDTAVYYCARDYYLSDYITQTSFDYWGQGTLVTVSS
VL: QSVLTQPPSVSGAPGQRVTISCTGSSSNIGAGYDVHWYQQLPGTAPKLLIYGNSNRPSGVPDRFSGSKSGTSASLAITGLQAEDEADYYCQSYDSSHTVFGGGTQLTVL
notes: Human, lambda light chain; scFv-Fc or full IgG not clear; also called KW17-Fc
B2: KW17.3.4 (antibody, V domains shown)
VH: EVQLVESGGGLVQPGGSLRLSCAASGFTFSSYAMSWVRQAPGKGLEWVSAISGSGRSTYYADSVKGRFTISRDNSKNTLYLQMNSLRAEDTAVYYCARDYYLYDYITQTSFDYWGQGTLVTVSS
VL: B1 VL with K68Q, D94N, S96G
B3: KW1.2.1 (antibody, V domains shown)
VH: EVQLVESGGGLVQPGGSLRLSCAASGSTFSSYAMSWVRQAPGKGLEWVSTISGSGGSTYYADSVKGRFTISRDNSRNTLYLQMNSLRAEDTAVYYCARGGLIPSGFDYWGQGTLVTVSS
VL: DIQMTQSPSSPSASVGDRVTITCRASQSISSYLNWYQQKPGKAPKLLIYAASSLLSGVPSRFSGSGSGTDFTLTISSLQPEDFATYYCQQTYSTPLTFGQGTKVEIK
B4: KM12.2.3 (antibody, human IgG1, V domains shown)
VH: EVQLVESGGGLVQPGGSLRLSCAASGFTFSSYAMSWIRQAPGKGLEWVSAISGSGGSIYYADSVKGRFTISRDNSKNTLYLQMNSLRAEDTAVYYCARGYSDSYFYGPYYTFDYWGQGTLVTVSS
VL: B3 VL with P11L, S28G, L55Q, P59S, T91S, S93N
B5: KW1.3.12 (antibody, human IgG1, V domains shown)
VH: B3 VH with S27F
VL: B3 VL with P11L, T94A
B6: KW9.3.3 (antibody, V domains shown)
VH: EVQLVESGGGLVQPGGSLRLSCAASGFTFSSYAMSWVRQAPGKGLEWVSAISGSGGRTYYADSVKGRFTISRDNSKNTLYLQMNSLRAEDTAMYYCARGPGYMYLYGDSFFEYWGQGTLVTVSS
VL: B3 VL with T5A, P11L, S28G, L55Q, S67Y, T91S
B7: KM12.4.7 (antibody, V domains shown)
VH: B4 VH with S21P, N84D
VL: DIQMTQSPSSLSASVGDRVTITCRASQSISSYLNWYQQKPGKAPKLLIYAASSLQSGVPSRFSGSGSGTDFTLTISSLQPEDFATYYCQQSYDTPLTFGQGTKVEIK
B8: KW7.3.7 (antibody, V domains shown)
VH: B3 VH with S27F, T50A, I51T, V64A, R76K, L101Y, I102L, S104D, G105A, Q111R
VL: B3 VL with P11L, R24W, K39E, L55Q
B9: KW7.2.2 (antibody, V domains shown)
VH: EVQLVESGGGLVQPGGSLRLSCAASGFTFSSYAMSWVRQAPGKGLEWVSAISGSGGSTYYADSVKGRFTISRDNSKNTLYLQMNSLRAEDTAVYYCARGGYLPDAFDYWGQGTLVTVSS
VL: B3 VL with P11L, K45R, L46F, L55Q

Legend:
Human Clec12B = target: T1, Human Clec12B; test: flow, Jurkat, 100 nM Ab
Human KLRG1 = target: T2, Human KLRG1; test: flow, Jurkat, 100 nM Ab
Human CD209 = target: T3, Human CD209; test: flow, Jurkat, 100 nM Ab
cynomolgus CD161 [1] = target: T4, cynomolgus CD161; test: flow, Jurkat
Human Clec5A = target: T5, Human Clec5A; test: flow, Jurkat, 100 nM Ab
Human KLRF1 = target: T6, Human KLRF1; test: flow, Jurkat, 100 nM Ab
human CD161 [2] = target: T7, human CD161 (human, UniProt Q12918 1-225); test: flow, Jurkat, 100 nM Ab
T7 construct: UniProt Q12918; also called hCD161; KLRB1

human CD161 [3] = target: T7, human CD161; test: flow, Jurkat, Ab titration
Procedure: (§1) To measure binding, Jurkat cells expressing hCD161 or cynoCD161 were incubated with 0.01 nM to either 0.1 μM or 0.3 μM anti-CD161 antibodies as listed in Table 12. Jurkat cells expressing cynoCD161 were prepared using the methods described in Example 7. Volumes were sufficiently large such that ligand was depleted less than 10%. Following a three-hour incubation on ice, cells were washed and stained with fluorescent anti-human secondary antibody. The cells were washed, and labeling of antibody binding was assessed by flow cytometry to determine the MFI as a function of anti-CD161 antibody concentration. Raw MFI (top panel) and MFI normalized to the maximum value in each dataset (bottom panel) are shown for binding to hCD161 (FIG. 7C) and to cynoCD161 (FIG. 7D).

cynomolgus CD161 [4] = target: T4, cynomolgus CD161; test: flow, Jurkat, Ab titration
Procedure: as §1

human CD161 [5] = target: T7, human CD161; test: flow cytometry titration of soluble IgG on Jurkat hCD161+ cells, fluorescent secondary antibody, MFI against Ab concentration (log [M])
Procedure: as §1

human CD161 [6] = target: T7, human CD161; test: flow, Jurkat, Ab titration; remark: listed apart in the source
cynomolgus CD161 [7] = target: T4, cynomolgus CD161; test: flow, Jurkat, Ab titration
cynomolgus CD161 [8] = target: T4, cynomolgus CD161; test: flow cytometry titration of soluble IgG on Jurkat cynoCD161+ cells, fluorescent secondary antibody, MFI against concentration (log [M])
Procedure: as §1

| Binder | MFI normalized to WT (Human Clec12B) | MFI normalized to WT (Human KLRG1) | MFI normalized to WT (Human CD209) | binding result (cynomolgus CD161 [1]) | MFI normalized to WT (Human Clec5A) | MFI normalized to WT (Human KLRF1) | MFI normalized to WT (human CD161 [2]) | Kd (human CD161 [3]) [nM] | Kd (cynomolgus CD161 [4]) [nM] | EC50 (read off the curve) (human CD161 [5]) [nM] | fold binding vs HP-3G10 (human CD161 [6]) [fold] | fold binding vs HP-3G10 (cynomolgus CD161 [7]) [fold] | EC50 (read off the curve) (cynomolgus CD161 [8]) [nM] |
| --- | --- | --- | --- | --- | --- | --- | --- | --- | --- | --- | --- | --- | --- |
| B1 | 1.04 | 1.05 | 0.92 | no binding (tested: 100 nM) | – | – | – | – | – | – | – | – | – |
| B2 | – | – | – | no binding (tested: 100 nM) | 1.12 | 0.91 | 143 | – | – | – | – | – | – |
| B3 | – | – | – | – | 1.13 | 1.14 | 172 | 0.233 | 0.247 | ~0.2 | ~10 | ~10 | – |
| B4 | – | – | – | – | 1.41 | 1.18 | 122 | – | – | – | – | – | – |
| B5 | – | – | – | – | 1.19 | 1.02 | 163 | 0.249 | 0.274 | ~0.4 | ~10 | ~10 | ~0.3 |
| B6 | – | – | – | no binding (tested: 100 nM) | 0.93 | 0.8 | 150 | – | – | – | – | – | – |
| B7 | – | – | – | – | 1.31 | 1.14 | 166 | 0.0925 | 0.225 | ~0.09 | ~10 | ~10 | ~0.2 |
| B8 | – | – | – | – | 1.08 | 1.19 | – | – | – | – | – | – | – |
| B9 | – | – | – | – | 1.24 | 1.18 | 145 | 0.207 | 0.24 | ~0.2 | ~10 | ~10 | – |
